{"source": "paper PMC10733300", "about": "“ANKS1A regulates LDL receptor-related protein 1 (LRP1)-mediated cerebrovascular clearance in brain endothelial cells” (Nature Communications, 2023)", "system": "iBBB (human iPSC-derived BBB)", "experiment": "Aβ(1–40) / Aβ(1–42) transcytosis and paracellular permeability assay, iBBB (transwell)", "settings": "Cy3-labeled Aβ(1–40) added to the abluminal side, 20 nM, 37 °C, 1 h, fluorescence", "protocol": "For iBBBs, iPSC-derived brain endothelial cells (iECs) were dissociated by Accutase, resuspended with hECSR1 supplemented with 10 μM Y27632 and then seeded onto a 24-well Matrigel-coated Transwell at a density of 10^6 cells per cm^2 to complete a confluent monolayer for 24 h. Afterwards, the iPCs, iASs or MEFs were seeded on top of the iEC monolayer culture at a density of 5 × 10^4 cells per cm^2. The iBBBs were further cultured for 12 or 14 days.\nFor analysis of bottom (apical) to top (basolateral) permeability, 500 μl of medium containing the fluorescent proteins was added to the lower chamber; for analysis of top to bottom permeability, 100 μl medium of the fluorescent proteins was added to the top chamber. Permeability assays were conducted at 37 °C for 1 h. Media from the bottom chamber or the top transwell insert were collected and analyzed by a fluorescence plate reader (Molecular Devices). The rationale for using the indicated final concentrations for each protein was that the levels of diffused or transcytosed proteins were within a detectable range via fluorescence.", "data": [{"substance": "Aβ(1-40): Cy3-labeled amyloid beta (1–40) peptide used as fluorescent permeant at 20 nM in the BBB models", "values": [{"measurement": "increase of permeability in WT iBBB compared to iECs co-cultured with MEFs", "result": 12, "unit": "%"}]}]}
